From patent US20010029035A1, “Oligonucleotide conjugates” (priority 2000, published 2001)

Key:
[1] = in vivo; cited from earlier work
[2] = system: SSTR-positive CA20948 pancreas tumors; test: Organ distribution study in CA 20948 tumor-bearing Lewis rats; conditions: rat, in vivo
Procedure: As explained in more detail below, PNA peptide conjugates were synthesized by means of Boc chemistry.
Organ distribution studies of the conjugate were carried out with tumor-bearing rats. […] The tumor cells are thawed, washed with PBS and suspended carefully. The cell suspension was transplanted subcutaneously into the flank of male Lewis rats (220-250 g) (about 2×10^6 cells in 0.1 ml). […] After 1 hour, the animals were killed and dissected. Various organs/tissue samples (tumor, blood, heart, lung, liver, stomach, kidney, spleen, muscle) were removed, weighed and the activity in the gamma counter was determined. In this way, % ID/g values could be obtained. The competitive uptake could be examined by injection of 100 μg octreotide, 30 min. prior to the application of the radioactive octreotide derivative.

SMILES	biological half-life [1]	organ distribution compared with 3-Tyr octreotide (in words) [2]	uptake into the tumor tissue (in words) [2]
C[C@@H](O)[C@@H]1NC(=O)[C@H](CCCCN)NC(=O)[C@@H](Cc2c[nH]c3ccccc23)NC(=O)[C@H](Cc2ccccc2)NC(=O)[C@@H](NC(=O)[C@H](N)Cc2ccccc2)CSSC[C@@H](C(=O)N[C@H](CO)[C@@H](C)O)NC1=O [Octreotide]	about 90 min.		
Cc1cn(CC(=O)N(CCNC(=O)CN(CCNC(=O)CN(CCNC(=O)CN(CCNC(=O)CN(CCNC(=O)CN(CCNC(=O)CN(CCNC(=O)CN(CCNC(=O)CN(CCNC(=O)CN(CCNC(=O)CN(CCNC(=O)CN(CCNC(=O)[C@@H](N)Cc2ccc(O)c(I)c2)C(=O)Cn2cnc3c(N)ncnc32)C(=O)Cn2cnc3c(=O)[nH]c(N)nc32)C(=O)Cn2ccc(N)nc2=O)C(=O)Cn2cnc3c(=O)[nH]c(N)nc32)C(=O)Cn2cc(C)c(=O)[nH]c2=O)C(=O)Cn2cnc3c(=O)[nH]c(N)nc32)C(=O)Cn2ccc(N)nc2=O)C(=O)Cn2cnc3c(=O)[nH]c(N)nc32)C(=O)Cn2ccc(N)nc2=O)C(=O)Cn2ccc(N)nc2=O)C(=O)Cn2cnc3c(N)ncnc32)CC(=O)NCCN(CC(=O)NCCN(CC(=O)NCCN(CC(=O)N[C@H](Cc2ccccc2)C(=O)N[C@H]2CSSC[C@@H](C(=O)N[C@H](C(=O)O)[C@@H](C)O)NC(=O)[C@H]([C@@H](C)O)NC(=O)[C@H](CCCCN)NC(=O)[C@@H](Cc3c[nH]c4ccccc34)NC(=O)[C@H](Cc3ccccc3)NC2=O)C(=O)Cn2ccc(N)nc2=O)C(=O)Cn2ccc(N)nc2=O)C(=O)Cn2ccc(N)nc2=O)c(=O)[nH]c1=O [PNA conjugate]		approximately the same concentration in tumor and pancreas	selective uptake, which could be inhibited with an excess of octreotide
